Reference: the MegaScale stability set (Tsuboyama et al. 2023)

B1: 5KPH (parent)
chain: EEKRQVKQVAKEKLLEQSPNSKVQVRRVQKQGNTIRVELELRTNGKKENYTVEVERQGNTWTVKRITRT

Variants of: B1
Experiment: folding stability dG (cDNA display proteolysis); higher = more stable
Details: PBS, room temperature

Variant	folding stability dG
EEKRQVKQQAKEKLLEQSPNSKVQVRRVQKQGNTIRVELELRTNGKKENYTVEVERQGNTWTVKRITRT [V9Q]	3.26 kcal/mol
EEKRQVKQPAKEKLLEQSPNSKVQVRRVQKQGNTIRVELELRTNGKKENYTVEVERQGNTWTVKRITRT [V9P]	1.9 kcal/mol
EEKRQVKQMAKEKLLEQSPNSKVQVRRVQKQGNTIRVELELRTNGKKENYTVEVERQGNTWTVKRITRT [V9M]	3.83 kcal/mol
EEKRQVKQWAKEKLLEQSPNSKVQVRRVQKQGNTIRVELELRTNGKKENYTVEVERQGNTWTVKRITRT [V9W]	2.74 kcal/mol
EEKRQVKQSAKEKLLEQSPNSKVQVRRVQKQGNTIRVELELRTNGKKENYTVEVERQGNTWTVKRITRT [V9S]	2.4 kcal/mol
EEKRQVKQIAKEKLLEQSPNSKVQVRRVQKQGNTIRVELELRTNGKKENYTVEVERQGNTWTVKRITRT [V9I]	4.22 kcal/mol
EEKRQVKQYAKEKLLEQSPNSKVQVRRVQKQGNTIRVELELRTNGKKENYTVEVERQGNTWTVKRITRT [V9Y]	3.38 kcal/mol
EEKRQVKQKAKEKLLEQSPNSKVQVRRVQKQGNTIRVELELRTNGKKENYTVEVERQGNTWTVKRITRT [V9K]	3.39 kcal/mol
EEKRQVKQRAKEKLLEQSPNSKVQVRRVQKQGNTIRVELELRTNGKKENYTVEVERQGNTWTVKRITRT [V9R]	3.07 kcal/mol
EEKRQVKQLAKEKLLEQSPNSKVQVRRVQKQGNTIRVELELRTNGKKENYTVEVERQGNTWTVKRITRT [V9L]	4.16 kcal/mol
EEKRQVKQTAKEKLLEQSPNSKVQVRRVQKQGNTIRVELELRTNGKKENYTVEVERQGNTWTVKRITRT [V9T]	3.15 kcal/mol
EEKRQVKQHAKEKLLEQSPNSKVQVRRVQKQGNTIRVELELRTNGKKENYTVEVERQGNTWTVKRITRT [V9H]	2.88 kcal/mol
EEKRQVKQNAKEKLLEQSPNSKVQVRRVQKQGNTIRVELELRTNGKKENYTVEVERQGNTWTVKRITRT [V9N]	2.18 kcal/mol
EEKRQVKQVAKMKLLEQSPNSKVQVRRVQKQGNTIRVELELRTNGKKENYTVEVERQGNTWTVKRITRT [E12M]	3.67 kcal/mol
EEKRQVKQVAKCKLLEQSPNSKVQVRRVQKQGNTIRVELELRTNGKKENYTVEVERQGNTWTVKRITRT [E12C]	3.52 kcal/mol
EEKRQVKQVAKWKLLEQSPNSKVQVRRVQKQGNTIRVELELRTNGKKENYTVEVERQGNTWTVKRITRT [E12W]	2.92 kcal/mol
EEKRQVKQVAKDKLLEQSPNSKVQVRRVQKQGNTIRVELELRTNGKKENYTVEVERQGNTWTVKRITRT [E12D]	4.17 kcal/mol
EEKRQVKQVAKSKLLEQSPNSKVQVRRVQKQGNTIRVELELRTNGKKENYTVEVERQGNTWTVKRITRT [E12S]	3.79 kcal/mol
EEKRQVKQVAKQKLLEQSPNSKVQVRRVQKQGNTIRVELELRTNGKKENYTVEVERQGNTWTVKRITRT [E12Q]	4.02 kcal/mol
EEKRQVKQVAKRKLLEQSPNSKVQVRRVQKQGNTIRVELELRTNGKKENYTVEVERQGNTWTVKRITRT [E12R]	3.89 kcal/mol
EEKRQVKQVAKTKLLEQSPNSKVQVRRVQKQGNTIRVELELRTNGKKENYTVEVERQGNTWTVKRITRT [E12T]	3.6 kcal/mol
EEKRQVKQVAKLKLLEQSPNSKVQVRRVQKQGNTIRVELELRTNGKKENYTVEVERQGNTWTVKRITRT [E12L]	3.47 kcal/mol
EEKRQVKQVAKNKLLEQSPNSKVQVRRVQKQGNTIRVELELRTNGKKENYTVEVERQGNTWTVKRITRT [E12N]	3.73 kcal/mol
EEKRQVKQVAKPKLLEQSPNSKVQVRRVQKQGNTIRVELELRTNGKKENYTVEVERQGNTWTVKRITRT [E12P]	1.8 kcal/mol
EEKRQVKQVAKFKLLEQSPNSKVQVRRVQKQGNTIRVELELRTNGKKENYTVEVERQGNTWTVKRITRT [E12F]	2.78 kcal/mol
EEKRQVKQVAKVKLLEQSPNSKVQVRRVQKQGNTIRVELELRTNGKKENYTVEVERQGNTWTVKRITRT [E12V]	3.21 kcal/mol

Variant	folding stability dG
EEKRQVKQVAKHKLLEQSPNSKVQVRRVQKQGNTIRVELELRTNGKKENYTVEVERQGNTWTVKRITRT [E12H]	3.53 kcal/mol
EEKRQVKQVAKGKLLEQSPNSKVQVRRVQKQGNTIRVELELRTNGKKENYTVEVERQGNTWTVKRITRT [E12G]	3.34 kcal/mol
EEKRQVKQVAKKKLLEQSPNSKVQVRRVQKQGNTIRVELELRTNGKKENYTVEVERQGNTWTVKRITRT [E12K]	3.83 kcal/mol
EEKRQVKQVAKAKLLEQSPNSKVQVRRVQKQGNTIRVELELRTNGKKENYTVEVERQGNTWTVKRITRT [E12A]	4.15 kcal/mol
EEKRQVKQVAKIKLLEQSPNSKVQVRRVQKQGNTIRVELELRTNGKKENYTVEVERQGNTWTVKRITRT [E12I]	3.56 kcal/mol
EEKRQVKQVAKYKLLEQSPNSKVQVRRVQKQGNTIRVELELRTNGKKENYTVEVERQGNTWTVKRITRT [E12Y]	2.83 kcal/mol
EEKRQVKQVAAEKLLEQSPNSKVQVRRVQKQGNTIRVELELRTNGKKENYTVEVERQGNTWTVKRITRT [K11A]	3.8 kcal/mol
EEKRQVKQVASEKLLEQSPNSKVQVRRVQKQGNTIRVELELRTNGKKENYTVEVERQGNTWTVKRITRT [K11S]	3.8 kcal/mol
EEKRQVKQVAMEKLLEQSPNSKVQVRRVQKQGNTIRVELELRTNGKKENYTVEVERQGNTWTVKRITRT [K11M]	4.37 kcal/mol
EEKRQVKQVAHEKLLEQSPNSKVQVRRVQKQGNTIRVELELRTNGKKENYTVEVERQGNTWTVKRITRT [K11H]	2.85 kcal/mol
EEKRQVKQVAQEKLLEQSPNSKVQVRRVQKQGNTIRVELELRTNGKKENYTVEVERQGNTWTVKRITRT [K11Q]	3.45 kcal/mol
EEKRQVKQVAEEKLLEQSPNSKVQVRRVQKQGNTIRVELELRTNGKKENYTVEVERQGNTWTVKRITRT [K11E]	3.44 kcal/mol
EEKRQVKQVAYEKLLEQSPNSKVQVRRVQKQGNTIRVELELRTNGKKENYTVEVERQGNTWTVKRITRT [K11Y]	3.32 kcal/mol
EEKRQVKQVATEKLLEQSPNSKVQVRRVQKQGNTIRVELELRTNGKKENYTVEVERQGNTWTVKRITRT [K11T]	3.86 kcal/mol
EEKRQVKQVAFEKLLEQSPNSKVQVRRVQKQGNTIRVELELRTNGKKENYTVEVERQGNTWTVKRITRT [K11F]	3.33 kcal/mol
EEKRQVKQVALEKLLEQSPNSKVQVRRVQKQGNTIRVELELRTNGKKENYTVEVERQGNTWTVKRITRT [K11L]	3.99 kcal/mol
EEKRQVKQVANEKLLEQSPNSKVQVRRVQKQGNTIRVELELRTNGKKENYTVEVERQGNTWTVKRITRT [K11N]	2.38 kcal/mol
EEKRQVKQVAREKLLEQSPNSKVQVRRVQKQGNTIRVELELRTNGKKENYTVEVERQGNTWTVKRITRT [K11R]	3.94 kcal/mol
EEKRQVKQVAVEKLLEQSPNSKVQVRRVQKQGNTIRVELELRTNGKKENYTVEVERQGNTWTVKRITRT [K11V]	4.49 kcal/mol
EEKRQVKQVAWEKLLEQSPNSKVQVRRVQKQGNTIRVELELRTNGKKENYTVEVERQGNTWTVKRITRT [K11W]	3.24 kcal/mol
EEKRQVKQVACEKLLEQSPNSKVQVRRVQKQGNTIRVELELRTNGKKENYTVEVERQGNTWTVKRITRT [K11C]	3.75 kcal/mol
EEKRQVKQVAIEKLLEQSPNSKVQVRRVQKQGNTIRVELELRTNGKKENYTVEVERQGNTWTVKRITRT [K11I]	4.55 kcal/mol
EEKRQVKQVADEKLLEQSPNSKVQVRRVQKQGNTIRVELELRTNGKKENYTVEVERQGNTWTVKRITRT [K11D]	1.94 kcal/mol
EEKRQVKQVAGEKLLEQSPNSKVQVRRVQKQGNTIRVELELRTNGKKENYTVEVERQGNTWTVKRITRT [K11G]	2.74 kcal/mol
EEKRQVKQVAPEKLLEQSPNSKVQVRRVQKQGNTIRVELELRTNGKKENYTVEVERQGNTWTVKRITRT [K11P]	2.01 kcal/mol
EEKRQVKQVAKEILLEQSPNSKVQVRRVQKQGNTIRVELELRTNGKKENYTVEVERQGNTWTVKRITRT [K13I]	4.04 kcal/mol

Variant	folding stability dG
EEKRQVKQVAKEELLEQSPNSKVQVRRVQKQGNTIRVELELRTNGKKENYTVEVERQGNTWTVKRITRT [K13E]	2.79 kcal/mol
EEKRQVKQVAKEALLEQSPNSKVQVRRVQKQGNTIRVELELRTNGKKENYTVEVERQGNTWTVKRITRT [K13A]	4.53 kcal/mol
EEKRQVKQVAKECLLEQSPNSKVQVRRVQKQGNTIRVELELRTNGKKENYTVEVERQGNTWTVKRITRT [K13C]	3.62 kcal/mol
EEKRQVKQVAKEFLLEQSPNSKVQVRRVQKQGNTIRVELELRTNGKKENYTVEVERQGNTWTVKRITRT [K13F]	3.99 kcal/mol
EEKRQVKQVAKEHLLEQSPNSKVQVRRVQKQGNTIRVELELRTNGKKENYTVEVERQGNTWTVKRITRT [K13H]	3.57 kcal/mol
EEKRQVKQVAKEDLLEQSPNSKVQVRRVQKQGNTIRVELELRTNGKKENYTVEVERQGNTWTVKRITRT [K13D]	1.86 kcal/mol
EEKRQVKQVAKEGLLEQSPNSKVQVRRVQKQGNTIRVELELRTNGKKENYTVEVERQGNTWTVKRITRT [K13G]	3.55 kcal/mol
EEKRQVKQVIKEKLLEQSPNSKVQVRRVQKQGNTIRVELELRTNGKKENYTVEVERQGNTWTVKRITRT [A10I]	4.24 kcal/mol
EEKRQVKQVTKEKLLEQSPNSKVQVRRVQKQGNTIRVELELRTNGKKENYTVEVERQGNTWTVKRITRT [A10T]	2.76 kcal/mol
EEKRQVKQVYKEKLLEQSPNSKVQVRRVQKQGNTIRVELELRTNGKKENYTVEVERQGNTWTVKRITRT [A10Y]	1.96 kcal/mol
EEKRQVKQVMKEKLLEQSPNSKVQVRRVQKQGNTIRVELELRTNGKKENYTVEVERQGNTWTVKRITRT [A10M]	2.73 kcal/mol
EEKRQVKQVQKEKLLEQSPNSKVQVRRVQKQGNTIRVELELRTNGKKENYTVEVERQGNTWTVKRITRT [A10Q]	1.91 kcal/mol
EEKRQVKQVNKEKLLEQSPNSKVQVRRVQKQGNTIRVELELRTNGKKENYTVEVERQGNTWTVKRITRT [A10N]	1.88 kcal/mol
EEKRQVKQVFKEKLLEQSPNSKVQVRRVQKQGNTIRVELELRTNGKKENYTVEVERQGNTWTVKRITRT [A10F]	2.24 kcal/mol
EEKRQVKQVKKEKLLEQSPNSKVQVRRVQKQGNTIRVELELRTNGKKENYTVEVERQGNTWTVKRITRT [A10K]	1.92 kcal/mol
EEKRQVKQVHKEKLLEQSPNSKVQVRRVQKQGNTIRVELELRTNGKKENYTVEVERQGNTWTVKRITRT [A10H]	1.69 kcal/mol
EEKRQVKQVVKEKLLEQSPNSKVQVRRVQKQGNTIRVELELRTNGKKENYTVEVERQGNTWTVKRITRT [A10V]	3.78 kcal/mol
EEKRQVKQVRKEKLLEQSPNSKVQVRRVQKQGNTIRVELELRTNGKKENYTVEVERQGNTWTVKRITRT [A10R]	2.02 kcal/mol
EEKRQVKQVGKEKLLEQSPNSKVQVRRVQKQGNTIRVELELRTNGKKENYTVEVERQGNTWTVKRITRT [A10G]	2.6 kcal/mol
EEKRQVKQVSKEKLLEQSPNSKVQVRRVQKQGNTIRVELELRTNGKKENYTVEVERQGNTWTVKRITRT [A10S]	2.92 kcal/mol
EEKRQVKQVCKEKLLEQSPNSKVQVRRVQKQGNTIRVELELRTNGKKENYTVEVERQGNTWTVKRITRT [A10C]	3.26 kcal/mol
EEKRQVKQVPKEKLLEQSPNSKVQVRRVQKQGNTIRVELELRTNGKKENYTVEVERQGNTWTVKRITRT [A10P]	1.77 kcal/mol
EEKRQVKQVDKEKLLEQSPNSKVQVRRVQKQGNTIRVELELRTNGKKENYTVEVERQGNTWTVKRITRT [A10D]	1.8 kcal/mol
EEKRQVKQVEKEKLLEQSPNSKVQVRRVQKQGNTIRVELELRTNGKKENYTVEVERQGNTWTVKRITRT [A10E]	1.78 kcal/mol
EEKRQVKQVLKEKLLEQSPNSKVQVRRVQKQGNTIRVELELRTNGKKENYTVEVERQGNTWTVKRITRT [A10L]	3.55 kcal/mol
EEKRQVKQVWKEKLLEQSPNSKVQVRRVQKQGNTIRVELELRTNGKKENYTVEVERQGNTWTVKRITRT [A10W]	2.27 kcal/mol
